Tests used:
HLA-A*01:01 = assay: IEDB peptide-MHC binding, purified MHC/competitive/radioactivity; filed as Kd, often an IC50 or EC50 that approximates it; ≥ and ≤ were set here for values at or beyond the usual limits of such assays
HLA-A*30:02 = assay: as above
HLA-A*30:01 = assay: as above
HLA-B*40:01 = assay: as above
HLA-B*53:01 = assay: as above
HLA-A*26:01 = assay: as above
HLA-A*24:02 = assay: as above
HLA-A*23:01 = assay: as above
HLA-A*29:02 = assay: as above
HLA-A*33:01 = assay: as above; settings: source organism: Vaccinia virus WR
HLA-A*68:01 = assay: as above; settings: source organism: Vaccinia virus WR
HLA-A*11:01 = assay: as above; settings: source organism: Vaccinia virus WR
HLA-A*03:01 = assay: as above; settings: source organism: Vaccinia virus WR
HLA-A*31:01 = assay: as above; settings: source organism: Vaccinia virus WR
HLA-B*15:01 [1] = assay: as above
HLA-B*57:01 = assay: IEDB peptide-MHC binding, purified MHC/direct/fluorescence; filed as Kd, often an IC50 or EC50 that approximates it; ≥ and ≤ were set here for values at or beyond the usual limits of such assays; settings: source organism: Yellow fever virus
HLA-B*44:02 = assay: IEDB peptide-MHC binding, purified MHC/competitive/radioactivity; filed as Kd, often an IC50 or EC50 that approximates it; ≥ and ≤ were set here for values at or beyond the usual limits of such assays
HLA-B*44:03 = assay: as above
HLA-B*15:01 [2] = assay: IEDB peptide-MHC binding, purified MHC/competitive/fluorescence; filed as Kd, often an IC50 or EC50 that approximates it; ≥ and ≤ were set here for values at or beyond the usual limits of such assays
HLA-B*46:01 = assay: as above; settings: source organism: Influenza A virus
[3] = source organism: Dengue virus 3 Martinique/1243/1999
[4] = source organism: Dengue virus 2 Jamaica/1409/1983
[5] = source organism: Dengue virus 4 Philippines/H241/1956
[6] = source organism: SARS coronavirus Tor2
[7] = source organism: Vaccinia virus WR
[8] = source organism: Mammarenavirus machupoense
[9] = source organism: Mammarenavirus brazilense
[10] = source organism: Dengue virus 1 Singapore/S275/1990

ISQHNHRPGY
Kd (HLA-A*01:01; [3]): 15000 nM | Kd (HLA-A*30:02; [3]): 99.8 nM | Kd (HLA-A*30:01; [3]): 12.2 nM

GEHKKLAEAI
Kd (HLA-B*40:01; [4]): 53.7 nM

NPAQEDDQY
Kd (HLA-B*53:01; [5]): 746 nM

ESASKSASVY
Kd (HLA-A*01:01; [6]): 300 nM | Kd (HLA-A*26:01; [6]): 286 nM | Kd (HLA-A*30:02; [6]): 659 nM | Kd (HLA-A*24:02; [6]): ≥ 70300 nM | Kd (HLA-A*23:01; [6]): ≥ 70000 nM | Kd (HLA-A*29:02; [6]): 374 nM

VEETNMITLL
Kd (HLA-B*40:01; source organism: Dengue virus 4 Dominica/814669/1981): 25 nM

FIESSICLDY
Kd (HLA-A*33:01): 5650 nM | Kd (HLA-A*68:01): 964 nM | Kd (HLA-A*11:01): 3930 nM | Kd (HLA-A*03:01): 2920 nM | Kd (HLA-A*29:02; [7]): ≥ 40500 nM | Kd (HLA-A*31:01): 10100 nM

GERSRCYSVY
Kd (HLA-A*01:01; [8]): ≥ 70400 nM | Kd (HLA-A*26:01; [8]): ≥ 69700 nM | Kd (HLA-A*30:02; [8]): 4510 nM | Kd (HLA-A*24:02; [8]): ≥ 70300 nM | Kd (HLA-A*23:01; [8]): ≥ 49100 nM | Kd (HLA-A*29:02; [8]): ≥ 71400 nM

VDICFWSTI
Kd (HLA-A*01:01; [8]): 1760 nM | Kd (HLA-A*26:01; [8]): ≥ 77900 nM | Kd (HLA-A*30:02; [8]): 5110 nM | Kd (HLA-A*24:02; [8]): 1070 nM | Kd (HLA-A*23:01; [8]): 12500 nM | Kd (HLA-A*29:02; [8]): ≥ 78900 nM

EYGFTRRFKF
Kd (HLA-A*24:02; [9]): 134 nM | Kd (HLA-A*23:01; [9]): 45.3 nM | Kd (HLA-A*29:02; [9]): 133 nM

TVFIRFPHY
Kd (HLA-B*15:01 [1]; [7]): 123 nM | Kd (HLA-A*30:01; [7]): 1270 nM

KIMKVVNRW
Kd (HLA-B*57:01): 131 nM

KFADDLNQM
Kd (HLA-A*01:01; [6]): ≥ 78100 nM | Kd (HLA-A*26:01; [6]): ≥ 44300 nM | Kd (HLA-A*30:02; [6]): ≥ 30000 nM | Kd (HLA-A*24:02; [6]): 1500 nM | Kd (HLA-A*23:01; [6]): 659 nM | Kd (HLA-A*29:02; [6]): 124 nM

EIKTGISSF
Kd (HLA-B*15:01 [1]; [7]): 89.9 nM

LAPFNFLVF
Kd (HLA-B*15:01 [1]; [7]): 135 nM

MTDKTPVHSW
Kd (HLA-B*53:01; [5]): 891 nM | Kd (HLA-B*44:02; [5]): 1410 nM

TVDSSQGSEY
Kd (HLA-A*01:01; [6]): 15.7 nM | Kd (HLA-A*26:01; [6]): 1070 nM | Kd (HLA-A*30:02; [6]): 414 nM | Kd (HLA-A*24:02; [6]): ≥ 70300 nM | Kd (HLA-A*23:01; [6]): ≥ 70000 nM | Kd (HLA-A*29:02; [6]): 823 nM

HEWMTTEDM
Kd (HLA-B*44:03; [4]): 1530 nM | Kd (HLA-B*44:02; [4]): 1960 nM | Kd (HLA-B*40:01; [4]): 381 nM

AWLVHRQWF
Kd (HLA-A*24:02; [4]): 164 nM | Kd (HLA-A*23:01; [4]): 340 nM

SEIPNLDII
Kd (HLA-B*44:03; [4]): 60.4 nM | Kd (HLA-B*40:01; [4]): 112 nM

FQNVNKITY
Kd (HLA-B*15:01 [2]; source organism: Influenza A virus): 154 nM | Kd (HLA-B*46:01): 3000 nM

LGRANITHF
Kd (HLA-B*15:01 [1]; [7]): 6.73 nM

AENHHHATML
Kd (HLA-B*44:03; [10]): 189 nM | Kd (HLA-B*44:02; [10]): 55.7 nM | Kd (HLA-B*40:01; [10]): 39.9 nM

LGFDVVAYF
Kd (HLA-B*15:01 [1]; source organism: Vaccinia virus Copenhagen): 67.3 nM

GTIMVSEHF
Kd (HLA-B*15:01 [1]; [7]): 57.4 nM

STLRTLKPY
Kd (HLA-B*15:01 [2]; source organism: Bacillus cereus G9241): 148 nM

WMVHRQWFF
Kd (HLA-A*24:02; [3]): 835 nM | Kd (HLA-A*23:01; [3]): 125 nM

VSENTGMGMY
Kd (HLA-A*33:01): ≥ 24200 nM | Kd (HLA-A*68:01): ≥ 36900 nM | Kd (HLA-A*11:01): 2360 nM | Kd (HLA-A*03:01): 1620 nM | Kd (HLA-A*29:02; [7]): 34 nM | Kd (HLA-A*31:01): 13400 nM

SYAQMWSLMY
Kd (HLA-A*30:02; source organism: Dengue virus 2 Peru/IQT2913/1996): ≥ 69700 nM

VSYSTFCLG
Kd (HLA-B*15:01 [1]; [7]): 710 nM

TPRMCTREEF
Kd (HLA-B*53:01; [4]): 1300 nM

EISSTFNRF
Kd (HLA-B*15:01 [1]; [7]): 131 nM

AEHTGREIV
Kd (HLA-B*40:01; [4]): 62.4 nM

VTYNCCDDDY
Kd (HLA-A*01:01; [6]): 32.6 nM | Kd (HLA-A*26:01; [6]): 18500 nM | Kd (HLA-A*30:02; [6]): 80 nM | Kd (HLA-A*24:02; [6]): ≥ 70300 nM | Kd (HLA-A*23:01; [6]): ≥ 70000 nM | Kd (HLA-A*29:02; [6]): 4490 nM

DPAKAYKDY
Kd (HLA-A*01:01; [6]): ≥ 119000 nM | Kd (HLA-A*26:01; [6]): ≥ 85500 nM | Kd (HLA-A*30:02; [6]): 9270 nM | Kd (HLA-A*24:02; [6]): ≥ 77600 nM | Kd (HLA-A*23:01; [6]): ≥ 77800 nM | Kd (HLA-A*29:02; [6]): 446 nM

WENNIKLTV
Kd (HLA-B*40:01; [3]): 120 nM

LAIPATEFF
Kd (HLA-B*15:01 [1]; [7]): 4.16 nM

GECIKTCVF
Kd (HLA-B*15:01 [1]; [7]): 115 nM

LSKNTFYLF
Kd (HLA-B*15:01 [1]; [7]): 14.2 nM

Reference: the Immune Epitope Database (IEDB)
